{"source": "the supplement of paper PMC10567573", "parents": {"B1": {"name": "FAM189A2 (parent)", "chain": "VAAALRYLQIFATRRSCIDESQIS"}}}
{"variants_of": "B1", "experiment": "protein stability index of a GFP-peptide fusion (GPS, HEK-293T) (PSI 1-6); higher = more stable", "details": "c terminus: a fixed tail appended"}
{"variant": "I10Y", "protein stability index": 2.65}
{"variant": "F11A", "protein stability index": 2.69}
{"variant": "F11C", "protein stability index": 4.31}
{"variant": "F11G", "protein stability index": 1.74}
{"variant": "F11H", "protein stability index": 2.04}
{"variant": "F11K", "protein stability index": 2.03}
{"variant": "F11N", "protein stability index": 1.34}
{"variant": "F11P", "protein stability index": 2.1}
{"variant": "F11R", "protein stability index": 2.63}
{"variant": "F11W", "protein stability index": 2.83}
{"variant": "F11Y", "protein stability index": 2.36}
{"variant": "A12C", "protein stability index": 2.17}
{"variant": "A12D", "protein stability index": 1.97}
{"variant": "A12F", "protein stability index": 2.03}
{"variant": "A12G", "protein stability index": 1.65}
{"variant": "A12H", "protein stability index": 2.87}
{"variant": "A12I", "protein stability index": 3.18}
{"variant": "A12K", "protein stability index": 2.13}
{"variant": "A12L", "protein stability index": 2.85}
{"variant": "A12M", "protein stability index": 2.18}
{"variant": "A12N", "protein stability index": 1.28}
{"variant": "A12P", "protein stability index": 3.67}
{"variant": "A12Q", "protein stability index": 2.29}
{"variant": "A12R", "protein stability index": 2.46}
{"variant": "A12S", "protein stability index": 3.61}
{"variant": "A12T", "protein stability index": 1.97}
{"variant": "A12V", "protein stability index": 2.09}
{"variant": "A12Y", "protein stability index": 2.74}
{"variant": "T13A", "protein stability index": 1.71}
{"variant": "T13D", "protein stability index": 1.52}
{"variant": "T13E", "protein stability index": 2.07}
{"variant": "T13F", "protein stability index": 2.78}
{"variant": "T13G", "protein stability index": 1.72}
{"variant": "T13H", "protein stability index": 2.75}
{"variant": "T13K", "protein stability index": 2.61}
{"variant": "T13M", "protein stability index": 3.45}
{"variant": "T13N", "protein stability index": 1.99}
{"variant": "T13P", "protein stability index": 2.29}
{"variant": "T13Q", "protein stability index": 2.08}
{"variant": "T13R", "protein stability index": 1.51}
{"variant": "T13S", "protein stability index": 1.76}
{"variant": "T13V", "protein stability index": 2.99}
{"variant": "R14A", "protein stability index": 1.61}
{"variant": "R14C", "protein stability index": 3.16}
{"variant": "R14D", "protein stability index": 2.37}
{"variant": "R14E", "protein stability index": 1.12}
{"variant": "R14F", "protein stability index": 2.54}
{"variant": "R14G", "protein stability index": 1.88}
{"variant": "R14H", "protein stability index": 3.33}
{"variant": "R14I", "protein stability index": 3.84}
{"variant": "R14K", "protein stability index": 1.79}
{"variant": "R14L", "protein stability index": 2.5}
{"variant": "R14M", "protein stability index": 1.56}
{"variant": "R14N", "protein stability index": 1.5}
{"variant": "R14P", "protein stability index": 2.78}
{"variant": "R14Q", "protein stability index": 1.91}
{"variant": "R14S", "protein stability index": 2.38}
{"variant": "R14T", "protein stability index": 2.5}
{"variant": "R14Y", "protein stability index": 3.44}
{"variant": "R15A", "protein stability index": 2.44}
{"variant": "R15C", "protein stability index": 2.03}
{"variant": "R15D", "protein stability index": 1.88}
{"variant": "R15E", "protein stability index": 2.13}
{"variant": "R15F", "protein stability index": 2.52}
{"variant": "R15H", "protein stability index": 1.94}
{"variant": "R15I", "protein stability index": 1.77}
{"variant": "R15K", "protein stability index": 2.62}
{"variant": "R15L", "protein stability index": 1.35}
{"variant": "R15M", "protein stability index": 1.28}
{"variant": "R15N", "protein stability index": 1.59}
{"variant": "R15P", "protein stability index": 1.52}
{"variant": "R15Q", "protein stability index": 1.67}
{"variant": "R15S", "protein stability index": 1.99}
{"variant": "R15T", "protein stability index": 2.69}
{"variant": "R15V", "protein stability index": 2.81}
{"variant": "R15Y", "protein stability index": 2.55}
{"variant": "S16A", "protein stability index": 3.14}
{"variant": "S16C", "protein stability index": 1.87}
{"variant": "S16D", "protein stability index": 1.8}
{"variant": "S16E", "protein stability index": 1.79}
{"variant": "S16G", "protein stability index": 1.41}
{"variant": "S16I", "protein stability index": 1.5}
{"variant": "S16K", "protein stability index": 2.15}
{"variant": "S16L", "protein stability index": 2.4}
{"variant": "S16M", "protein stability index": 3.14}
{"variant": "S16N", "protein stability index": 1.57}
{"variant": "S16Q", "protein stability index": 1.79}
{"variant": "S16T", "protein stability index": 2.29}
{"variant": "S16V", "protein stability index": 2.01}
{"variant": "S16W", "protein stability index": 2.37}
{"variant": "C17A", "protein stability index": 1.72}
{"variant": "C17D", "protein stability index": 1.9}
{"variant": "C17E", "protein stability index": 1.71}
{"variant": "C17G", "protein stability index": 3.03}
{"variant": "C17H", "protein stability index": 1.27}
{"variant": "C17I", "protein stability index": 2.44}
{"variant": "C17K", "protein stability index": 1.89}
{"variant": "C17L", "protein stability index": 1.58}
{"variant": "C17M", "protein stability index": 2.58}
{"variant": "C17P", "protein stability index": 2.05}
{"variant": "C17Q", "protein stability index": 2.5}
{"variant": "C17R", "protein stability index": 1.23}
{"variant": "C17S", "protein stability index": 1.74}
{"variant": "C17T", "protein stability index": 2.17}
{"variant": "C17V", "protein stability index": 1.27}
{"variant": "C17Y", "protein stability index": 3.8}
{"variant": "I18A", "protein stability index": 2.58}
{"variant": "I18C", "protein stability index": 2.3}
{"variant": "I18D", "protein stability index": 2.02}
{"variant": "I18E", "protein stability index": 3.15}
{"variant": "I18F", "protein stability index": 4.04}
{"variant": "I18G", "protein stability index": 2.2}
{"variant": "I18H", "protein stability index": 1.52}
{"variant": "I18K", "protein stability index": 2.7}
{"variant": "I18L", "protein stability index": 2.57}
{"variant": "I18N", "protein stability index": 2.27}
{"variant": "I18P", "protein stability index": 2.1}
{"variant": "I18Q", "protein stability index": 1.95}
{"variant": "I18S", "protein stability index": 2.14}
{"variant": "I18T", "protein stability index": 1.75}
{"variant": "I18V", "protein stability index": 1.89}
{"variant": "I18W", "protein stability index": 4.01}
{"variant": "I18Y", "protein stability index": 2.54}
{"variant": "D19A", "protein stability index": 2.45}
{"variant": "D19C", "protein stability index": 3.29}
{"variant": "D19E", "protein stability index": 2.01}
{"variant": "D19F", "protein stability index": 1.75}
{"variant": "D19G", "protein stability index": 2.56}
{"variant": "D19I", "protein stability index": 2.5}
{"variant": "D19K", "protein stability index": 3.22}
{"variant": "D19L", "protein stability index": 3.03}
{"variant": "D19M", "protein stability index": 3.73}
{"variant": "D19N", "protein stability index": 2.04}
{"variant": "D19P", "protein stability index": 1.77}
{"variant": "D19Q", "protein stability index": 1.13}
{"variant": "D19R", "protein stability index": 2.05}
{"variant": "D19T", "protein stability index": 2.36}
{"variant": "D19V", "protein stability index": 3.57}
{"variant": "D19W", "protein stability index": 4.35}
{"variant": "D19Y", "protein stability index": 4.69}
{"variant": "E20A", "protein stability index": 1.65}
{"variant": "E20C", "protein stability index": 3.76}
{"variant": "E20D", "protein stability index": 2.1}
{"variant": "E20G", "protein stability index": 2.34}
{"variant": "E20K", "protein stability index": 3.19}
{"variant": "E20L", "protein stability index": 3.32}
{"variant": "E20M", "protein stability index": 2.92}
{"variant": "E20N", "protein stability index": 2.85}
{"variant": "E20P", "protein stability index": 3.3}
{"variant": "E20Q", "protein stability index": 2.35}
{"variant": "E20R", "protein stability index": 1.24}
{"variant": "E20S", "protein stability index": 2.66}
{"variant": "E20T", "protein stability index": 3.24}
{"variant": "E20W", "protein stability index": 4.07}
{"variant": "E20Y", "protein stability index": 3.14}
{"variant": "S21C", "protein stability index": 1.98}
{"variant": "S21D", "protein stability index": 2.28}
{"variant": "S21E", "protein stability index": 2.91}
{"variant": "S21G", "protein stability index": 1.83}
{"variant": "S21H", "protein stability index": 2.45}
{"variant": "S21I", "protein stability index": 4.41}
{"variant": "S21K", "protein stability index": 2.61}
{"variant": "S21L", "protein stability index": 2.45}
{"variant": "S21M", "protein stability index": 3.11}
{"variant": "S21N", "protein stability index": 1.73}
{"variant": "S21P", "protein stability index": 1.97}
{"variant": "S21Q", "protein stability index": 2.85}
